Measurements from publication PMC12319226 (Frontiers in Bioinformatics, 2025).
Numbering of substitutions follows the chain as printed.

B1: chimeric antibody h12C1 (antibody, V domains shown)
VH: QVQLQESGPELVKPGASVKISCKASGYSFSDYNMSWVKQSNGKSLEWIGIIDPKYGTINYNQKFKGKATLTVDQASSTAYMQLNSLTSEDSAVYYCVRDYYGSSYFDYWGQGTTLTVSS
VL: DIVLTQSPSSIYASLGERVTLTCKASQDIHNYLNWFQQKPGKSPKTLIYRANRLVDGVPSRFSGGGSGQDYSLTISSLEFEDIGIYYCLQYDEFPPTFGGGTRLEIK
notes: also called humanized 12C1; source: Expi293, purified (MabSelect SuRe, SEC); copies: 2 + 2
B2: mAb 1E6 (human) (antibody, V domains shown)
VH: EVQLVQSGAEVKKPGSSVKVSCKASGGTVIDYPITWVRQAPGQGLEWVGGFVPLFRTSNYGQKFQGRVTITADKSTSTASMELNSLTSEDTAIYYCARGDTAMGPFDYWGQGTLVTVSS
VL: SYVLTQPPSLSVAPGKTATLTCGGNNIAGKTVHWYQQRPGQAPVLVISYDSDRPSGIPERFSGSNSANTATLTISRVEAGDEADYYCQVWDRNSDHWVFGGGTKLTVL
notes: source: Expi293, purified (MabSelect SuRe, SEC); copies: 2 + 2
B3: mAb 4B3 (human) (antibody, V domains shown)
VH: QVQLVQSGGGLVKPGGSLRLSCAASGFPFSSYYMSWIRQAPGKGLEWVSDINNSGNVKEYADFVKGRLTISRDNVKNSMYLHMNSLRVEDTAVYYCARNRGRFDVWGQGTLVTVSA
VL: EIVMTQSPGTLSLSPGETATLSCRASQMISSPFLAWYQQRRGQAPRLLIYGASTRATDTPDRFRGSGSGTDFILTISRLEPEDFAVYYCQYYDDSPFTFGQGTKLEIK
notes: also called 4B3-2; source: Expi293, purified (MabSelect SuRe, SEC); copies: 2 + 2

Key:
Assay in all cases: BLI
Details in all cases: both partners purified
fHbp m002404 = biological target: T1, fHbp m002404 (Neisseria meningitidis fHbp v3.28, …, chimera)
T1 chain: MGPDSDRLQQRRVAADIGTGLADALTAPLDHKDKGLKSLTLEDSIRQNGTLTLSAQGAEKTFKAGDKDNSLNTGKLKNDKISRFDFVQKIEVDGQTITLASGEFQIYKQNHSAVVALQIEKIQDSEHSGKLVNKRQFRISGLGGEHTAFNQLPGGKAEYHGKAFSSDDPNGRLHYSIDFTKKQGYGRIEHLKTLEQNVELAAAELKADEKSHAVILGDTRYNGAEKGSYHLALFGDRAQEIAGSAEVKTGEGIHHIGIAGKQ

fHbp m002414 = biological target: T2, fHbp m002414 (Neisseria meningitidis fHbp v3.28, …, chimera)
T2 chain: T1 chain with G250V, G252S

fHbp m001099 = biological target: T3, fHbp m001099 (Neisseria meningitidis fHbp v3.28-based …, point mutant)
T3 chain: T1 chain with Y221L, N222G, G223S, T249S, G250V, E251V, G252A

fHbp m001152 = biological target: T4, fHbp m001152 (Neisseria meningitidis fHbp v3.28-based …, point mutant)
T4 chain: T1 chain with Y221L, N222G, G223S, T249I, G250V, E251V, G252S

fHbp m001180 = biological target: T5, fHbp m001180 (Neisseria meningitidis fHbp v3.28-based …, point mutant)
T5 chain: T1 chain with Y221L, N222G, T249S, G250V, E251V, G252A

fHbp m001531 = biological target: T6, fHbp m001531 (Neisseria meningitidis, fHbp …, point mutant)
T6 chain: T1 chain with Y221L, G223Q, G250V, E251V, G252A

fHbp m001621 = biological target: T7, fHbp m001621 (Neisseria meningitidis, fHbp …, point mutant)
T7 chain: T1 chain with Y221L, G223S, G250D, E251V, G252A

fHbp m001659 = biological target: T8, fHbp m001659 (Neisseria meningitidis, fHbp …, point mutant)
T8 chain: T1 chain with Y221L, T249S, G250V, G252S

fHbp mutant 0016 = biological target: T9, fHbp mutant 0016 (Neisseria meningitidis, fHbp v1.1 mutant, point mutant)
T9 chain: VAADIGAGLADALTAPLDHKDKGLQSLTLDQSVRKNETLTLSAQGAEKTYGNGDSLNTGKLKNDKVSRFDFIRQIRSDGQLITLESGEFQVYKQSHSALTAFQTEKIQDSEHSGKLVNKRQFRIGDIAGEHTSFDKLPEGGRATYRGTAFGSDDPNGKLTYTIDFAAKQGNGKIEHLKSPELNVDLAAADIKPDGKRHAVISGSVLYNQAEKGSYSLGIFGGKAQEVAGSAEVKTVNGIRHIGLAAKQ

Binder	Kd (fHbp m002404) [nM]	koff (fHbp m002404) [s⁻¹]	kon (fHbp m002404) [M⁻¹ s⁻¹]	Kd (fHbp m002414) [nM]	koff (fHbp m002414) [s⁻¹]	kon (fHbp m002414) [M⁻¹ s⁻¹]	Kd (fHbp m001099) [nM]	koff (fHbp m001099) [s⁻¹]	kon (fHbp m001099) [M⁻¹ s⁻¹]	Kd (fHbp m001152) [nM]	koff (fHbp m001152) [s⁻¹]	kon (fHbp m001152) [M⁻¹ s⁻¹]	Kd (fHbp m001180) [nM]	koff (fHbp m001180) [s⁻¹]	kon (fHbp m001180) [M⁻¹ s⁻¹]	Kd (fHbp m001531) [nM]	koff (fHbp m001531) [s⁻¹]	kon (fHbp m001531) [M⁻¹ s⁻¹]	Kd (fHbp m001621) [nM]	koff (fHbp m001621) [s⁻¹]	also measured
B1	125	0.01534 ± 0.000107	123000 ± 5460	66.4	0.00858	129000 ± 5630	44	0.0106	241000 ± 3220	45.9	0.00937	204000 ± 3360	69.9	0.0158	227000 ± 3250	0.717	0.00022	307400 ± 2940	54	0.0115	kon (fHbp m001621): 214000 ± 5580 M⁻¹ s⁻¹; Kd (fHbp m001659): 1.75 nM; koff (fHbp m001659): 0.000578 s⁻¹; kon (fHbp m001659): 330000 ± 3440 M⁻¹ s⁻¹
B2	0.429	0.000144	336700 ± 1540	1.09	0.000223	205200 ± 950	0.841	0.000237	281500 ± 1290	0.291	0.000121	415300 ± 2380	0.574	0.000278	485200 ± 1980	0.546	0.0002	367300 ± 1990	0.464	0.000174	Kd (fHbp mutant 0016): 0.69 nM; koff (fHbp mutant 0016): 0.000223 s⁻¹; kon (fHbp mutant 0016): 323000 ± 3620 M⁻¹ s⁻¹; kon (fHbp m001621): 375400 ± 1900 M⁻¹ s⁻¹; Kd (fHbp m001659): 0.716 nM; koff (fHbp m001659): 0.000306 s⁻¹; kon (fHbp m001659): 427300 ± 1410 M⁻¹ s⁻¹
B3	–	–	–	–	–	–	–	–	–	–	–	–	–	–	–	–	–	–	–	–	Kd (fHbp mutant 0016): 4.74 nM; koff (fHbp mutant 0016): 0.00131 s⁻¹; kon (fHbp mutant 0016): 276800 ± 1380 M⁻¹ s⁻¹
